According to patent US20260242489A1 (HUAHUI HEALTH, published 2026):
Where two headings read alike, the source gives them in different places.

B1: G5V2 (human IgG1 form) (antibody, V domains shown)
VH: QVQLVQSGAEVKRPGSSVKVSCKASGGISDGSAISWVRQAPGQGLEWMGGIYFFNGNTNYAQKFQGRVTITADESTSTAYMELSSLRSEDTAVYYCARDSSLGYYDYFDYWGQGTLVTVSS
VL: QPVLTQPPSVSAAPGQTARITCGGNNIGEKYVQWYQQRPGQAPVLVIYYDDDRPSGIPERFSGSNSGNTAALTINSVEAGDEADYYCQAWDDYDPVVFGGGTQLTVLG
B2: G5V2 Y32E (phage display Fab form) (Fab, V domains shown)
VH: QVQLVQSGAEVKRPGSSVKVSCKASGGISDGSAISWVRQAPGQGLEWMGGIYFFNGNTNYAQKFQGRVTITADESTSTAYMELSSLRSEDTAVYYCARDSSLGYYDYFDYWGQGTLVTVSS
VL: QPVLTQPPSVSAAPGQTARITCGGNNIGEKEVQWYQQRPGQAPVLVIYYDDDRPSGIPERFSGSNSGNTAALTINSVEAGDEADYYCQAWDDYDPVVFGGGTQLTVL
notes: Y32 is Kabat numbering

What was measured:
hEGFR ECR H370A = hEGFR ECR H370A (human, UniProt P00533 25-642); assay: ELISA: G5V2 IgG1 coated on plate, antigen titrated, HRP-labeled His-Tag antibody; pH 7.4
[1] = biological target: T1, hEGFR ECR-His6-Avi-Biotin (human, UniProt P00533 25-642, biotinylated on the Avi tag using BirA ligase); assay: as above
T1 construct: also called WT hEGFR ECR; human EGFR ECD; not shown: His6-Avi tag

[2] = biological target: T1, hEGFR ECR-His6-Avi-Biotin; assay: ELISA: antibody coated on plate, hEGFR ECR titrated (Log[Ag] nM), detected through its His tag; pH not given [table]
[3] = biological target: T1, hEGFR ECR-His6-Avi-Biotin; assay: ELISA: hEGFR ECR on plate, IgG1 titrated, anti-hFc-HRP; pH 6.5 [table]
[4] = biological target: T2, mEGFR ECR (His6-Avi-tagged) (mouse, UniProt Q01279 25-644); assay: ELISA: mEGFR ECR on plate, IgG1 titrated, anti-hFc-HRP; pH 6.5 [table]
T2 construct: also called mouse EGFR; not shown: His6-Avi tag

[5] = biological target: T1, hEGFR ECR-His6-Avi-Biotin; assay: ELISA: G5V2 IgG1 coated on plate, antigen titrated, HRP-labeled His-Tag antibody; pH 7.4; remark: listed apart in the source
[6] = biological target: T1, hEGFR ECR-His6-Avi-Biotin; assay: ELISA: hEGFR ECR on plate, IgG1 titrated, anti-hFc-HRP; EC50 at pH 7.4 over EC50 at pH 6.5 [table]
[7] = biological target: T1, hEGFR ECR-His6-Avi-Biotin; assay: ELISA: hEGFR ECR on plate, IgG1 titrated, anti-hFc-HRP; pH 7.4 [table]
[8] = biological target: T2, mEGFR ECR (His6-Avi-tagged); assay: ELISA: mEGFR ECR on plate, IgG1 titrated, anti-hFc-HRP; pH 7.4 [table]
[9] = biological target: T1, hEGFR ECR-His6-Avi-Biotin; assay: ELISA: hEGFR ECR on plate, IgG1 titrated, anti-hFc-HRP; pH 6.5 [table]; remark: listed apart in the source
[10] = biological target: T2, mEGFR ECR (His6-Avi-tagged); assay: IgG1 ELISA at pH 6.5, mEGFR ECR against hEGFR ECR
[11] = biological target: T1, hEGFR ECR-His6-Avi-Biotin; assay: ELISA: hEGFR ECR on plate, IgG1 titrated, anti-hFc-HRP; pH 7.4 [table]; remark: listed apart in the source
[12] = biological target: T2, mEGFR ECR (His6-Avi-tagged); assay: ELISA: mEGFR ECR on plate, IgG1 titrated, anti-hFc-HRP; EC50 at pH 7.4 over EC50 at pH 6.5 [table]
[13] = biological target: T1, hEGFR ECR-His6-Avi-Biotin; assay: ELISA: hEGFR ECR on plate, IgG1 titrated, anti-hFc-HRP; EC50 at pH 7.4 over EC50 at pH 6.5 [table]; remark: listed apart in the source
[14] = biological target: human EGFR domain III (human) (UniProt P00533); assay: ELISA: antibody coated on plate, hEGFR domain III titrated (Log[Ag] nM), detected through its His tag; pH not given [table]
[15] = biological target: T1, hEGFR ECR-His6-Avi-Biotin; assay: phage display Fab ELISA on hEGFR ECR, pH 6.5
[16] = biological target: T1, hEGFR ECR-His6-Avi-Biotin; assay: phage display Fab ELISA on hEGFR ECR
[17] = biological target: T1, hEGFR ECR-His6-Avi-Biotin; assay: phage ELISA: hEGFR ECR on plate, phage display Fab titrated, anti-M13-HRP; EC50 at pH 7.4 over EC50 at pH 6.5 [table]
[18] = biological target: T1, hEGFR ECR-His6-Avi-Biotin; assay: phage display Fab ELISA on hEGFR ECR, pH 6.5 and pH 7.4

Binder	EC50 (read off the curve) (hEGFR ECR H370A)	EC50 (read off the curve) [1]	EC50 [2]	EC50 [3]	EC50 [4]	EC50 (read off the curve) [5]	EC50 ratio (pH 7.4/pH 6.5) [6]	EC50 [7]	EC50 [8]	EC50 [9]	EC50 ratio, mEGFR/hEGFR (pH 6.5) [10]	EC50 [11]	EC50 ratio (pH 7.4/pH 6.5) [12]	EC50 ratio (pH 7.4/pH 6.5) [13]	EC50 [14]	fold decrease of binding affinity at pH 6.5 against G5V2 [15]	fold higher binding affinity over G5V2 Y32D [16]	EC50 ratio (pH 7.4/pH 6.5) [17]	fold higher pH-dependent binding over WT G5V2 [18]
B1	~3 nM	~3 nM	1.24 nM	0.03 nM	0.037 nM	~2 nM	1.03	0.031 nM	0.046 nM	0.502 nM	1.23	0.595 nM	1.24	1.19	2.37 nM				
B2																~8 fold	~3 fold	15.6	~13 fold
